According to article PMC11228984:

Test: expression and purification from insect cells
Settings: glycan lost; control: unmutated TREK2 construct

B1: TREK2: N144Q (protein)
parent chain: MFFLYTDFFLSLVAVPAAAPVCQPKSATNGQPPAPAPTPTPRLSISSRATVVARMEGTSQGGLQTVMKWKTVVAIFVVVVVYLVTGGLVFRALEQPFESSQKNTIALEKAEFLRDHVCVSPQELETLIQHALDADNAGVSPIGNSSNNSSHWDLGSAFFFAGTVITTIGYGNIAPSTEGGKIFCILYAIFGIPLFGFLLAGIGDQLGTIFGKSIARVEKVFRKKQVSQTKIRVISTILFILAGCIVFVTIPAVIFKYIEGWTALESIYFVVVTLTTVGFGDFVAGGNAGINYREWYKPLVWFWILVGLAYFAAVLSMIGDWLRVLSKKTKEEVGEIKAHAAEWKANVTAEFRETRRRLSVEIHDKLQRAATIRSMERRRLGLDQRAHSLDMLSPEKRSVFAALDTGRFKASSQESINNRPNNLRLKGPEQLNKHGQGASEDNIINKFGSTSRLTKRKNKDLKKTLPEDVQKIYKTFRNYSLDEEKKEEETEKMCNSDNSSTAMLTDCIQQHAELENGMIPTDTKDREPENNSLLEDRN
**Q.** For B1, which expression_or_secretion is on record?
**A.** The expression_or_secretion was “no change”.
